From patent publication US20250163127A1
“And” between values parts separate entries of the source, which are not always exact repeats. Equal entries are not always repeated. Blank lines part the entries; values can stand above or below the substance they belong to.

Assays:
CD226 (human) [1] = target: T1, CD226 (human) (UniProt Q15762); assay: flow cytometry, Fc fusion on Expi293 cells transfected with full-length human CD226
T1 sequence: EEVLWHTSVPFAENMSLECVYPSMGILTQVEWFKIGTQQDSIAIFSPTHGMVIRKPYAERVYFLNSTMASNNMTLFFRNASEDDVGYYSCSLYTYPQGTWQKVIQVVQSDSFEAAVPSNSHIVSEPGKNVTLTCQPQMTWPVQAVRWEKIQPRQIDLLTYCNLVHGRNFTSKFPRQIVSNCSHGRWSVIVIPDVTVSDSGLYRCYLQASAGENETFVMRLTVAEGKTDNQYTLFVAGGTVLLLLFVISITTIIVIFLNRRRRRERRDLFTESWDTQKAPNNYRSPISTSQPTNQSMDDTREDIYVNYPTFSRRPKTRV

TIGIT (human) [2] = target: T2, TIGIT (human) (UniProt Q495A1); assay: flow cytometry on transfected HEK293 cells, 100 nM
T2 sequence: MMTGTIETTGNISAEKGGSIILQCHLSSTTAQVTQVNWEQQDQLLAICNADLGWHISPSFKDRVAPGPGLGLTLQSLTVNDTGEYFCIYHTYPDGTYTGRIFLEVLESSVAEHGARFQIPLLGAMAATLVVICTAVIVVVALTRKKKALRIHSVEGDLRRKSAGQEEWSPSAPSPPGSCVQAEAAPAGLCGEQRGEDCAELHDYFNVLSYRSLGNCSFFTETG

CD96 (human) [3] = target: T3, CD96 (human) (UniProt P40200); assay: flow cytometry on transfected HEK293 cells, 100 nM
T3 sequence: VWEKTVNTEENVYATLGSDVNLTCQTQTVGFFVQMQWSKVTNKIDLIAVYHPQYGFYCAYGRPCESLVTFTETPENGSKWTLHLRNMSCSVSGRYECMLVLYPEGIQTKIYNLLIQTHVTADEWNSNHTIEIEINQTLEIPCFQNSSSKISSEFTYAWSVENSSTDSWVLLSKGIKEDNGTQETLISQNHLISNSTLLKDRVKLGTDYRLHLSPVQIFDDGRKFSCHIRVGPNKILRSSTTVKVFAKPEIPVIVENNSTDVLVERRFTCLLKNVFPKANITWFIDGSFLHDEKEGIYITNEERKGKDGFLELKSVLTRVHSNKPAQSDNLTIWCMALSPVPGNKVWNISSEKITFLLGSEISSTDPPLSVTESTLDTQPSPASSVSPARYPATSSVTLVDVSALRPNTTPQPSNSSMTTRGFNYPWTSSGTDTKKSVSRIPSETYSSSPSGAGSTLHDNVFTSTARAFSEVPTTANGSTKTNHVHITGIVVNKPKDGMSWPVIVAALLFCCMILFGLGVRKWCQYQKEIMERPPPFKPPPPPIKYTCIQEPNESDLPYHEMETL

TIGIT (human) [4] = target: T2, TIGIT (human); assay: flow cytometry, transfected HEK293
CD112R (human) [5] = target: CD112R (human) (UniProt Q6DKI7); assay: flow cytometry, transfected HEK293
Sequence of CD112R (human) (Q6DKI7 whole entry, the tested form may be a part): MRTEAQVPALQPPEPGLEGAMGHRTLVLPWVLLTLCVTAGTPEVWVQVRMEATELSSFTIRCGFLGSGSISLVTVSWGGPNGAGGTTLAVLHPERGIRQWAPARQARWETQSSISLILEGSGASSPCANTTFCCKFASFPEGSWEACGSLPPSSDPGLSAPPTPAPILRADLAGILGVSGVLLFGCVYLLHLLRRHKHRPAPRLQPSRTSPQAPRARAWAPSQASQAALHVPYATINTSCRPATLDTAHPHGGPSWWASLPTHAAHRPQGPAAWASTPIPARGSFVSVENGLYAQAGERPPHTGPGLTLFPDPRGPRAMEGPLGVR

CD226 (human) [6] = target: T1, CD226 (human); assay: flow cytometry, transfected HEK293
CD96 (human) [7] = target: T3, CD96 (human); assay: flow cytometry, transfected HEK293
TIGIT (human) [8] = target: T2, TIGIT (human); assay: flow cytometry, Fc fusion on Expi293 cells transfected with full-length human TIGIT
CD112R (human) [9] = target: CD112R (human) (UniProt Q6DKI7); assay: flow cytometry, Fc fusion on Expi293 cells transfected with full-length human CD112R
CD96 (human) [10] = target: T3, CD96 (human); assay: flow cytometry, CD96-transfected Expi293 cells
TIGIT (human) [11] = target: T2, TIGIT (human); assay: flow cytometry, TIGIT-transfected Expi293 cells
CD96 (human) [12] = target: T3, CD96 (human); assay: flow cytometry, CD96-transfected Expi293 cells; ratio to wild-type CD155
CD226 (human) [13] = target: T1, CD226 (human); assay: flow cytometry, CD226-transfected Expi293 cells
CD80 (human) [14] = assay: flow cytometry, cells expressing CD80, 20 nM
ICOSL (human) = target: T4, ICOSL (human) (UniProt O75144); assay: flow cytometry, cells expressing the partner
T4 sequence: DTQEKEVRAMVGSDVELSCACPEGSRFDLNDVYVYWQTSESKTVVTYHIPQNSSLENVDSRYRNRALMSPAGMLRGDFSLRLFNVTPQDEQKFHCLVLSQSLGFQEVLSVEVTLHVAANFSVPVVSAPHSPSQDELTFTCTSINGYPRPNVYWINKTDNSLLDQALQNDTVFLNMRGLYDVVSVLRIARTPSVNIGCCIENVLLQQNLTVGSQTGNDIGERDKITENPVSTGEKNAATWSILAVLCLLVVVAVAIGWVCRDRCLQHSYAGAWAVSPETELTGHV

CD86 (human) = CD86 (human) (UniProt P42081); assay: flow cytometry, cells expressing the partner
CD80 (human) [15] = target: CD80 (human) (UniProt P33681); assay: flow cytometry, cells expressing the partner
Sequence of CD80 (human) (UniProt P33681) (P33681 35-288): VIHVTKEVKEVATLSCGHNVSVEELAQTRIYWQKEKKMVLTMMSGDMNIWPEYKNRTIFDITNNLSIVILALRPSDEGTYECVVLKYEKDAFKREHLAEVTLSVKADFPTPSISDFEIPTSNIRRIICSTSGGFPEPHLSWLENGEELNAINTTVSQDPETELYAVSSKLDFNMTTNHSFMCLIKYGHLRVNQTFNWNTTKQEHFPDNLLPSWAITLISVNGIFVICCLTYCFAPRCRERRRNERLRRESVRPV

human PD-1 (human) = human PD-1 (human) (UniProt Q15116); assay: flow cytometry, cells expressing PD-1, 20 nM
[16] = target: CTLA-4, full-length, expressed on transfected cells (Homo sapiens (Human)) (UniProt P16410); assay: flow cytometry, cells expressing target
Sequence of CTLA-4, full-length, expressed on transfected cells (Homo sapiens (Human)) (P16410 36-223): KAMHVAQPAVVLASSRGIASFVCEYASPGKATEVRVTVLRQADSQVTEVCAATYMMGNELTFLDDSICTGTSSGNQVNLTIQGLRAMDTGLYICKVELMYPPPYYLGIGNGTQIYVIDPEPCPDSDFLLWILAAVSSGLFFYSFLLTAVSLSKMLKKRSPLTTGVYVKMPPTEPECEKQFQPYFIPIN

[17] = target: CD28, full-length, expressed on transfected cells (Homo sapiens (Human)) (UniProt P10747); assay: flow cytometry, cells expressing target
[18] = target: ICOS, full-length, expressed on transfected cells (Homo sapiens (Human)) (UniProt Q9Y6W8); assay: flow cytometry, cells expressing target
Sequence of ICOS, full-length, expressed on transfected cells (Homo sapiens (Human)) (Q9Y6W8 21-199 limits assumed): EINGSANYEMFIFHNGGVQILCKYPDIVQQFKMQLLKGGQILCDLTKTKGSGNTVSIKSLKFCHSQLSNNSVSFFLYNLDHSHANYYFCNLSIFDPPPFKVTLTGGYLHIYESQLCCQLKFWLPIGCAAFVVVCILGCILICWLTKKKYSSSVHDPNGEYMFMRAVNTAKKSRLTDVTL

[19] = target: ICOS as used in the OD read-out of Table E15A (Homo sapiens (Human)) (UniProt Q9Y6W8); assay: OD read-out, format not told

Sequence of CD112 ECD-Fc (Fc fusion) (chain): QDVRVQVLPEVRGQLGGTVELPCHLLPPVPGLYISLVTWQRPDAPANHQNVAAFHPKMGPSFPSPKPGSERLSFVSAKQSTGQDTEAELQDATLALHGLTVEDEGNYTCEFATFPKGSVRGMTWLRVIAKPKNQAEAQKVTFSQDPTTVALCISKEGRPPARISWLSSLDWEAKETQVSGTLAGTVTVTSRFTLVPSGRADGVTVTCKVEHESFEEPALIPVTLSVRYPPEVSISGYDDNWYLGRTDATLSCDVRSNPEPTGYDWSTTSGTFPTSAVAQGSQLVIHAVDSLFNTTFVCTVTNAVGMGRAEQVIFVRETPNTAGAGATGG
Sequence of CTLA4-Fc (P16410 37-162 limits assumed): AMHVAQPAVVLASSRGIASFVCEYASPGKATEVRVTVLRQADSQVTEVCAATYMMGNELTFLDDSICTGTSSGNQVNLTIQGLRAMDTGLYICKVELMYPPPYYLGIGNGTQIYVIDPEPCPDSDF

MFI (CD226 (human) [1]): 152000 MFI
Substance: CD112 A112V (Fc fusion)

MFI at 100 nM (TIGIT (human) [2]): 29200 MFI
MFI at 100 nM (CD96 (human) [3]): 1100 MFI
Substance: CD112 ECD-Fc (Fc fusion)

MFI at 20 nM (TIGIT (human) [4]): 69700
MFI at 20 nM (CD112R (human) [5]): 1140 and 1110
Substance: CD112 IgV-Fc A112V (Fc fusion)

Fold Increase to WT IgV (TIGIT (human) [4]): 5.09 fold
MFI at 20 nM (TIGIT (human) [4]): 178000
Fold Increase to WT IgV (CD112R (human) [5]): 0.69 fold
MFI at 20 nM (CD112R (human) [5]): 1150
Fold Increase to WT IgV (CD226 (human) [6]): 1.28 fold
MFI at 20 nM (CD226 (human) [6]): 13800
Fold Increase to WT IgV (CD96 (human) [7]): 1.25 fold
MFI at 20 nM (CD96 (human) [7]): 3120
Substance: CD112 IgV-Fc Y33H/A112V (Fc fusion)

MFI (TIGIT (human) [8]): 6040 MFI
MFI (CD226 (human) [1]): 15300 MFI
MFI parental ratio (parental ratio) (CD226 (human) [1]): 0.06
MFI (CD112R (human) [9]): 1970 MFI
MFI parental ratio (parental ratio) (CD112R (human) [9]): 1.36
Substance: CD112 N106Y, A112V (Fc fusion)

MFI (TIGIT (human) [8]): 99000 MFI
MFI (CD226 (human) [1]): 231000 MFI
Substance: CD112 Y33H, A112V (Fc fusion)

MFI (CD96 (human) [10]): 2620
MFI (TIGIT (human) [11]): 2910
Substance: CD155 IgV-Fc A81V, L83P (Fc fusion)

MFI (CD96 (human) [10]): 3280
MFI (TIGIT (human) [11]): 4070
MFI parental ratio (CD96 (human) [12]): 1.1
MFI (CD226 (human) [13]): 5140
Substance: CD155 IgV-Fc P18L, L79V, F91S (Fc fusion)

MFI (CD96 (human) [10]): 2510
MFI (TIGIT (human) [11]): 2940
MFI parental ratio (CD96 (human) [12]): 0.8
MFI (CD226 (human) [13]): 3590
Substance: CD155 IgV-Fc P18T, F91S, R94H (Fc fusion)

MFI at 20 nM (CD80 (human) [14]): 200000 MFI
Substance: CTLA4-Fc (from UniProt P16410) (Fc fusion)

MFI (ICOSL (human)): 928 MFI
MFI (CD86 (human)): 276000 MFI
MFI ratio to WT (ΔWT) (CD86 (human)): 0.4 fold
MFI (CD80 (human) [15]): 1024 MFI
Substance: CTLA-4 ECD-Fc L12P/A26T (Fc fusion)

MFI (ICOSL (human)): 891 MFI
MFI (CD86 (human)): 500000 MFI
MFI (CD80 (human) [15]): 2400 MFI
Substance: CTLA-4 ECD-Fc L12P/A26T/L63P (Fc fusion)

MFI (ICOSL (human)): 873 MFI
MFI (CD86 (human)): 762000 MFI
MFI (CD80 (human) [15]): 829 MFI
Substance: CTLA-4 ECD-Fc L12P/A26T/L63P/L98Q/Y105L (Fc fusion)

MFI (ICOSL (human)): 966 MFI
MFI (CD86 (human)): 596000 MFI
MFI (CD80 (human) [15]): 3930 MFI
Substance: CTLA-4 ECD-Fc L63P (Fc fusion)

MFI (ICOSL (human)): 1800 MFI
MFI (CD86 (human)): 411000 MFI
MFI (CD80 (human) [15]): 4720 MFI
Substance: CTLA-4 ECD-Fc L63P/L98Q/Y105L (Fc fusion)

MFI (ICOSL (human)): 1190 MFI
MFI (CD86 (human)): 685000 MFI
MFI (CD80 (human) [15]): 3860 MFI
Substance: CTLA-4 ECD-Fc L98Q/Y105L (Fc fusion)

MFI at 20 nM (CD80 (human) [14]): 132 MFI
MFI at 20 nM (human PD-1 (human)): 59 MFI
Substance: Fc Control

MFI [16]: 2150 MFI
MFI [17]: 1510 MFI
MFI [18]: 53800 MFI
Substance: ICOSL ECD-Fc F138L/L203P (Fc fusion)

MFI [17]: 447 MFI
parental ratio [17]: 24.8 ratio to WT
OD [19]: 1.57 OD
Substance: ICOSL ECD-Fc N52H/N57Y/Q100P (Fc fusion)

MFI [16]: 1800 MFI
Substance: ICOSL ECD-Fc N52S/E220G (Fc fusion)

MFI [17]: 24 MFI
OD [19]: 0.16 OD
parental ratio [19]: 0.19 ratio to WT
Substance: ICOSL ECD-Fc N52S/S130G/Y152C (Fc fusion)

MFI [16]: 62800 MFI
parental ratio [16]: 3.55 ratio to WT
MFI [17]: 120000 MFI
parental ratio [17]: 26.8 ratio to WT
MFI [18]: 180000 MFI
Substance: ICOSL ECD-Fc V11E/N30D/N52H/N57Y/H94E/L96I/L98F/N194D/V210A/I218T (Fc fusion)
